Test results taken from patent publication US20070009988A1.

What was measured:
gliadin 33mer … (wheat) = assay: cell-based or functional assay
[1] = target: T1, gliadin 33mer LQLQPFPQPQLPYPQPQLPYPQPQLPYPQPQPF
T1 chain: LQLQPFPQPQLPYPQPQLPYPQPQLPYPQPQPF

[2] = target: T2, gliadin 14mer PQPQLPYPQPQLPY
T2 chain: PQPQLPYPQPQLPY

Pronase
digestion of the peptide over 20 h, E/S=1/25 (gliadin 33mer … (wheat)): < 40%

B1: microsomal leucine aminopeptidase from porcine kidney (Sigma) (protein)
chain: YAQEKNKNAEHVPQAPTSPTITTTAAITLDQSKPWNRYRLPTTLLPDSYNVTLRPYLTPNADGLYIFKGKSIVRLLCQEPTDVIIIHSKKLNYTTQGHMVVLRGVGDSQVPEIDRTELVELTEYLVVHLKGSLQPGHMYEMESEFQGELADDLAGFYRSEYMEGNVKKVLATTQMQSTDARKSFPCFDEPAMKATFNITLIHPNNLTALSNMPPKGSSTPLAEDPNWSVTEFETTPVMSTYLLAYIVSEFQSVNETAQNGVLIRIWARPNAIAEGHGMYALNVTGPILNFFANHYNTSYPLPKSDQIALPDFNAGAMENWGLVTYRENALLFDPQSSSISNKERVVTVIAHELAHQWFGNLVTLAWWNDLWLNEGFASYVEYLGADHAEPTWNLKDLIVPGDVYRVMAVDALASSHPLTTPAEEVNTPAQISEMFDSISYSKGASVIRMLSNFLTEDLFKEGLASYLHAFAYQNTTYLDLWEHLQKAVDAQTSIRLPDTVRAIMDRWTLQMGFPVITVDTKTGNISQKHFLLDSESNVTRSSAFDYLWIVPISSIKNGVMQDHYWLRDVSQAQNDLFKTASDDWVLLNVNVTGYFQVNYDEDNWRMIQHQLQTNLSVIPVINRAQVIYDSFNLATAHMVPVTLALDNTLFLNGEKEYMPWQAALSSLSYFSLMFDRSEVYGPMKKYLRKQVEPLFQHFETLTKNWTERPENLMDQYSEINAISTACSNGLPQCENLAKTLFDQWMSDPENNPIHPNLRSTIYCNAIAQGGQDQWDFAWGQLQQAQLVNEADKLRSALACSNEVWLLNRYLGYTLNPDLIRKQDATSTINSIASNVIGQPLAWDFVQSNWKKLFQDYGGGSFSFSNLIQGVTRRFSSEFELQQLEQFKKNNMDVGFGSGTRALEQALEKTKANIKWVKENKEVVLNWFIEHS
digestion of the peptide, RP-HPLC and ESI-MS [1]: incubation with microsomal porcine kidney aminopeptidase results only in a partial deletion of N-terminal Leu and C-terminal Phe (due to a carboxypeptidasic contaminant)

B2: recombinant ruLAP2 (aminopeptidase II of Trichophyton rubrum) produced in P. pastoris (protein)
chain: RLVGQEPFGWPFKPMVTQDDLQNKIKLKDIMAGVEKLQSFSDAHPEKNRVFGGNGHKDTVEWIYNEIKATGYYDVKKQEQVHLWSHAEAALNANGKDLKASAMSYSPPASKIMAELVVAKNNGCNATDYPANTQGKIVLVERGVCSFGEKSAQAGDAKAAGAIVYNNVPGSLAGTLGGLDKRHVPTAGLSQEDGKNLATLVASGKIDVTMNVISLFENRTTWNVIAETKGGDHNNVIMLGAHSDSVDAGPGINDNGSGSIGIMTVAKALTNFKLNNAVRFAWWTAEEFGLLGSTFYVNSLDDRELHKVKLYLNFDMIGSPNFANQIYDGDGSAYNMTGPAGSAEIEYLFEKFFDDQGIPHQPTAFTGRSDYSAFIKRNVPAGGLFTGAEVVKTPEQVKLFGGEAGVAYDKNYHRKGDTVANINKGAIFLNTRAIAYAIAEYARSLKGFPTRPKTGKRDVNPQYSKMPGGGCGHHTVFM
digestion of the peptide, 37 C, 4 h, RP-HPLC and ESI-MS [2]: the 14mer is not digested with ruLAP2 within 4 h. There is no change in the HPLC profile when compared with the control. In fact, digestion results only in the cleavage of the N-terminal Proline.
mass loss after overnight digestion (ESI-MS), E/S 1:20 and 1:100 (Gly-Ser-proNPY): incubation with ruLAP2 results in the cleavage of the two N-terminal residues Gly-Ser with a theoretical loss of 144.1 amu (found 144.2)
mass loss after overnight digestion (ESI-MS) (Ala-proNPY): the N-terminal alanine was almost totally removed (molecular mass loss of 71 amu) from proNPY

B3: cytosolic leucine aminopeptidase from porcine kidney (Sigma) (protein)
chain: TKGLVLGIYSKEKEDDAPQFTSAGENFDKLVSGKLREILNISGPPLKAGKTRTFYGLHEDFSSVVVVGLGKKGAGVDDQENWHEGKENIRAAVAAGCRQIQDLEIPSVEVDPCGDAQAAAEGAVLGLYEYDELKQKKKVVVSAKLHGSGDQEAWQRGVLFASGQNLARHLMETPANEMTPTRFAEVIEKNLKSASSKTDVHIRPKSWIEEQEMGSFLSVAKGSEEPPVFLEIHYKGSPDASDPPLVFVGKGITFDSGGISIKASANMDLMRADMGGAATICSTIVSAAKLDLPINLVGLAPLCENMPSGKANKPGDVVRAKNGKTIQVDNTDAEGRLILADALCYAHTFNPKVIINAATLTGAMDIALGSGATGVFTNSSWLWNKLFEASIETGDRVWRMPLFEHYTKQIVDCQLADVNNIGKYRSAGACTAAAFLKEFVTHPKWAHLDIAGVMTNKDEVPYLRKGMAGRPTRTLIEFLLRFSQDSA
digestion of the peptide, RP-HPLC [1]: Cytosolic porcine kidney aminopeptidase is totally inactive towards the 33mer
